Measurements reported in US20050260733A1, “Proteases and uses thereof” (WYETH, priority 2004, published 2005).
Like-named read-outs stand apart in the source and are kept apart here.

Assays:
[1] = target: undigested bovine aggrecan (bovine) (UniProt P13608); experiment: cell-based or functional assay
[2] = target: undigested bovine aggrecan (bovine) (UniProt P13608); experiment: cell-based or functional assay; remark: listed apart in the source

Sequence of undigested bovine aggrecan (bovine) (P13608 20-2364): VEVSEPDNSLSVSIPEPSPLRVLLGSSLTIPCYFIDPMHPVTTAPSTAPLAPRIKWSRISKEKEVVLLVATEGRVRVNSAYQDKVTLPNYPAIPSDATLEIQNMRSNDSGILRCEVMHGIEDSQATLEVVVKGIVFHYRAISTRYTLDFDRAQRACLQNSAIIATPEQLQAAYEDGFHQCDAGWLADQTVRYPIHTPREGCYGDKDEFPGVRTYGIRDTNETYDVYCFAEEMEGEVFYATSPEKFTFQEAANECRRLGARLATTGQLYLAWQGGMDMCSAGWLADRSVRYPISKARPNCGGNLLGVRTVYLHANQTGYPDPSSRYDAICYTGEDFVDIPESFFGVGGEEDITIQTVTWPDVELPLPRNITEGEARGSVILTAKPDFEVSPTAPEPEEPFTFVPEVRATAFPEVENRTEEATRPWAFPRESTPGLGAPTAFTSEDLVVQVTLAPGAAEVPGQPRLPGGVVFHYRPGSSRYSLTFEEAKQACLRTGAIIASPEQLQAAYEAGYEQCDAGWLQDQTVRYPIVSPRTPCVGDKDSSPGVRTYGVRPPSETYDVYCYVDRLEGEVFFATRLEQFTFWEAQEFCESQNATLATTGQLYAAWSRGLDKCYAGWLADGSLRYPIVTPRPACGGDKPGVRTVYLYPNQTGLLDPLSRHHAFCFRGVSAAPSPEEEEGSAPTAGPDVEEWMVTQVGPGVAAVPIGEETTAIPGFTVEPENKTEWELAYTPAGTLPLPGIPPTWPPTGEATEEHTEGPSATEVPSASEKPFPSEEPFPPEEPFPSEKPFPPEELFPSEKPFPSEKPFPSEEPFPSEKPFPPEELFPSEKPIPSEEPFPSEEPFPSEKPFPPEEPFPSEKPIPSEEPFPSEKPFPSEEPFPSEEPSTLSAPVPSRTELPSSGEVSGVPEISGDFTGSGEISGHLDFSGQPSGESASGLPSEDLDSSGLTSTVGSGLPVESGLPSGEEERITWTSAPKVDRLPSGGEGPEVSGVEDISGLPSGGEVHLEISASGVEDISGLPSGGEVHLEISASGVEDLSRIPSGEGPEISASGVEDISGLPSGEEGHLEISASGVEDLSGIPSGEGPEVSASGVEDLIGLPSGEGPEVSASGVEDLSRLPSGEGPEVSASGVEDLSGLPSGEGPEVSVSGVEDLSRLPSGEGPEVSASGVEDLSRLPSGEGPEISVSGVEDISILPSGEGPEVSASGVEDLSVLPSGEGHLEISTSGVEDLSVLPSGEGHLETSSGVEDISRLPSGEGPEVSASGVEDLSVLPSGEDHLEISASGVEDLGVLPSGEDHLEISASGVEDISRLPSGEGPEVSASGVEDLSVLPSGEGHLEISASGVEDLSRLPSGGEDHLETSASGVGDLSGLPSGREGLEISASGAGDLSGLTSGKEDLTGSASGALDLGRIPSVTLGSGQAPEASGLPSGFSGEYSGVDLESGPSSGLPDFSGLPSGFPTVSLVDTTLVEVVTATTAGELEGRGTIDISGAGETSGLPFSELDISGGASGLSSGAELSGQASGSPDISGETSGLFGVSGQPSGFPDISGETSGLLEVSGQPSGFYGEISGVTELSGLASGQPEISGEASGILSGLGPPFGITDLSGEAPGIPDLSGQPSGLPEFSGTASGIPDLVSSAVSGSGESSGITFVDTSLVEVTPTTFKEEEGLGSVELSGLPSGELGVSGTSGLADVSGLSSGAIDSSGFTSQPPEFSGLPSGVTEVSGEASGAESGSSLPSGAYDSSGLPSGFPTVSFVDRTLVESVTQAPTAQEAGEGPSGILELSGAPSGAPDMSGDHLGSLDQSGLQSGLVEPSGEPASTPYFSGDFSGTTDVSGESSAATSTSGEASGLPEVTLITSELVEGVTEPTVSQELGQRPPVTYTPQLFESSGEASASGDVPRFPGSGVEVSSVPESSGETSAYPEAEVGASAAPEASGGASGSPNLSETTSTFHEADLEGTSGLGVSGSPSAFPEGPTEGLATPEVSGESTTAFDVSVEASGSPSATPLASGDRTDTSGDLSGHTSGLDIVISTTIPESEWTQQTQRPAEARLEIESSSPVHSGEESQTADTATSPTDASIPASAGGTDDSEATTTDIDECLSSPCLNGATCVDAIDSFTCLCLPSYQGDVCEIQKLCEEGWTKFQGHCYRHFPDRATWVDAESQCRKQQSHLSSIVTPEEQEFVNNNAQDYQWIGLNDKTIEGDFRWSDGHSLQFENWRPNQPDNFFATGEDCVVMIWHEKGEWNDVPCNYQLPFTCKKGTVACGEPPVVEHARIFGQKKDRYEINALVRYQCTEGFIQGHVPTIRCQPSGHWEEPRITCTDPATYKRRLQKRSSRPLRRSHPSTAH

## recombinant ADAMTS-4 (from UniProt O75173 213-694) (enzyme)
[1]
  amount of enzyme needed for 45% inhibition in the competitive inhibition ELISA for aggrecanase activity: 1 ng
[2]
  amount of enzyme needed for 45% inhibition in the competitive inhibition ELISA for aggrecanase activity: 0.0135 pM
